Publication PMC5509671

Key:
[1] = biological target: full length human Bax S4C, C62S, C126S, labelled (human) (UniProt Q07812); experiment: scanning FCCS in giant unilamellar vesicles; membrane-embedded proteins in GUVs (30% CL or MOM mix), 22 °C; membrane insertion with cBid (labelled cBid as partner, or unlabeled cBid as activator; for Bax with Bcl-xL: cBid, Bax and GUVs incubated 30 min before Bcl-xL was added); mean CC above 20% indicates interaction
[2] = biological target: full length human Bcl-xL S4C, C151A, labelled (human) (UniProt Q07817); experiment: as above
[3] = biological target: full length human Bcl-xL S4C, C151A, labelled (human) (UniProt Q07817); experiment: fluorescence cross-correlation spectroscopy (FCCS) in solution; both partners free in solution, one with a green and one with a red dye; 150 mM NaCl, 20 mM Tris, pH 7.5; incubated at least 30 min (1 h for the cBidG titration); protein concentrations up to 200 nM; CC above 2.8% indicates interaction
[4] = biological target: full length human Bcl-xL S4C, C151A, labelled (human) (UniProt Q07817); experiment: FCCS kinetics in solution fitted with an ODE model; Bcl-xLR and Bcl-xLG mixed and incubated 2 h at RT, then 400 nM unlabeled cBid (~10-fold excess) or buffer added at t = 0; CC followed over time; rate constants from the ODE model of scenario 2 with likelihood profiles (95% confidence)

Sequence of UniProt Q07817 (Q07817 whole entry S4C/C151A): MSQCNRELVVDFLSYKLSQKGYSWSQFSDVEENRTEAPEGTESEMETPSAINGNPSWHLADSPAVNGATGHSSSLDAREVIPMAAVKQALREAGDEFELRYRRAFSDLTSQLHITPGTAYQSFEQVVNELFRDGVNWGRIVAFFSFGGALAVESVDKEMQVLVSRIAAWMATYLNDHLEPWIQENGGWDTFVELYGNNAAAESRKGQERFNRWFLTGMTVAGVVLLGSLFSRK
Sequence of UniProt Q07812 (Q07812 whole entry S4C/C62S/C126S): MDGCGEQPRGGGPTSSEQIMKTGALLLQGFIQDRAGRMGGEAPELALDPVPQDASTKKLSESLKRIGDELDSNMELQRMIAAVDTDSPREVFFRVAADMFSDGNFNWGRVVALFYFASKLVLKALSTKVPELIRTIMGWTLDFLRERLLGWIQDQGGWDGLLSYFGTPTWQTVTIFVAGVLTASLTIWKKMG

Question: Which %CC [1] does the source give for “cBid (caspase 8-cleaved full length mouse Bid) labelled at the C-terminal fragment (complex)” here?
Answer: < 40 % CC

Question: And the %CC [2]?
Answer: > 60 % CC

Question: And the %CC [3]?
Answer: < 40 % CC

Question: For “full length human Bax S4C, C62S, C126S, labelled (from UniProt Q07812 1-192) (natural protein)”, which %CC (highest, in single GUVs) [1] is on record?
Answer: < 100 % CC

Question: For “cBid (caspase 8-cleaved full length mouse Bid), unlabeled (complex)”, which k+3 (cBid with a Bcl-xL homo-dimer, giving a cBid/Bcl-xL hetero-dimer and a Bcl-xL monomer) [4] is on record?
Answer: 10 to 700 M⁻¹ s⁻¹
